Common to all, as to test: not read
Holding throughout (settings): other: substrate of human CDA, 37° C., Michaelis Menten fit, pH 7.5

Substrate in data set [1]: C[C@]1(CO)O[C@@H](n2cc(F)c(N)nc2=O)[C@@H](O)[C@@H]1O
Experimental: (§1) Transfer 7.2 μl of each of the substrate DMSO stock in step 2 into a 500 μl 96-Well V-bottom Microplate, clear SBS footprint, cat #P-96-450V-C
Add 352.8 μl assay buffer to the wells
(§2) For deaminated product compounds mix 4 μl product with 196 μl assay buffer
(§3) This was incubated at 37° C. for 1 h. 200 μl of this mixture was transferred into the assay plate to serve as the product control.
(§4) Product+buffer: mix 80 ul of the 2.5× intermediate product stocks (from step 3) with 120 ul assay buffer into product control (no enzyme) wells
(§5) Incubate the plate alongside the 20 nM CDA enzyme intermediate stock at 37° C. to temperature equilibrate reagents
(§6) Add 120 μl of the 20 nM enzyme mix into the Substrate+CDA wells and start reading at 290 nm every 30 s for about 60 min
50 and 200 uM substrate and product
(§7) In 100 mM Tris, pH 7.5, 100 mM KCl, 0.8% carryover DMSO
5 min incubation at 37° C.
(§8) Absorbance at 290 nm every 30 s at 37° C. for 1 h using FlexStation 3
(§9) Convert A290 to concentration of substrate remaining at time t after enzyme addition:
(§10) [formula] • where: • St=absorbance reading of: substrate+CDA wells at time t • So=Average absorbance reading of: substrate+buffer wells • Po=Average absorbance reading of: product+buffer wells • [S]t=initial substrate concentration • Use GraphPad to plot [substrate] against time to calculate initial velocity or slope (μMs^−1) i.e. the linear range of each curve • Express rate in s^−1 by dividing initial velocity by the total enzyme concentration.
(§11) Plot rate against [substrate] and fit data to standard Michaelis Menten equation to obtain kcat and KM parameters.
Substrate in data set [2]: C[C@]1(CO)O[C@@H](n2ccc(N)nc2=O)[C@@H](O)[C@@H]1O
Experimental: as §1
Add 352.8 μl assay buffer to the wells
as §2, §3, §4, §5, §6
50 and 200 uM substrate and product
as §7
5 min incubation at 37° C.
as §8, §9, §10, §11
Substrate in data set [3]: Nc1ccn([C@@H]2O[C@H](CO)[C@@H](O)C2(F)F)c(=O)n1
Experimental: as §1
Add 352.8 μl assay buffer to the wells
as §2, §3, §4, §5, §6
50 and 200 uM substrate and product
as §7
5 min incubation at 37° C.
as §8, §9, §10, §11
Substrate in data set [4]: C[C@]1(CO)O[C@@H](n2cc(F)c(N)nc2=O)C[C@@H]1O
Experimental: as §1
Add 352.8 μl assay buffer to the wells
as §2, §3, §4, §5, §6
50 and 200 uM substrate and product
as §7
5 min incubation at 37° C.
as §8, §9, §10, §11

Here are results for one protein from patent publication US20250215039A1, “NUCLEOSIDES FOR TREATING CANCER” (PRIMEFOUR THERAPEUTICS, INC., priority 2022, published 2025).

B1: human cytidine deaminase (CDA) (Homo sapiens) (protein)
chain: MAQKRPACTLKPECVQQLLVCSQEAKKSAYCPYSHFPVGAALLTQEGRIFKGCNIENACYPLGICAERTAIQKAVSEGYKDFRAIAIASDMQDDFISPCGACRQVMREFGTNWPVYMTKPDGTYIVMTVQELLPSSFGPEDLQKTQ
In the case of B1, the Km in “not read [1]” was determined as 1057.8 µM; in the data set “not read [2]”, 196 µM; in the data set “not read [3]” it was 520.8 µM; in “not read [4]”, 1003 µM. Moreover, the kcat in the data set “not read [1]” came to 6.1 s⁻¹; in “not read [2]”, 2.8 s⁻¹; in “not read [3]” it was 26.8 s⁻¹; in “not read [4]”, 13.3 s⁻¹. Also, the kcat/Km in the data set “not read [1]” is 5000 M⁻¹ s⁻¹; in the data set “not read [2]”, 16000 M⁻¹ s⁻¹; in the data set “not read [3]”, 0.53 (M^−1s^−1) × 10^5; in “not read [4]”, 23000 M⁻¹ s⁻¹.
